Assay results published in patent publication US5827498A, “Tumor affinity peptide, and radioactive diagnostic agent and radioactive therapeutic agent containing the peptide” (Nihon Medi-Physics Co., Ltd., priority 1994, dated 1998).
Read-outs that look alike come from different tables or passages of the source. No end group written: not given here.

Tests used:
[1] = design: species or system SD rats (Sprague-Dawley Rats); conditions: rat, in vivo
Description: To SD rats (Sprague-Dawley Rats) weighing 140 to 200 grams and previously Ravonal anesthetized, technetium-99m-peptide-1 obtained in Example 6, technetium-99m-peptide-2, 3 and 4 obtained in Example 7, technetium-99m-peptide-5, 6, 7, 8, 9, 10, 11, 12, 13 and KYCAREPPTRTNAYWGQG (hereinafter referred to as "peptide-14") prepared according to the method of Example 6 were each administered to the tail vein in an amount of 35 MBq to 45 MBq. The animals were sacrificed 5, 30, 60 and 180 minutes later to determine distribution ratio of radioactivity in various organs using a single channel counter.

[2] = Time course of technetium-99m labeling yield in vitro (HPLC); type: physicochemical
Description: To 40.3 μmol/300 μl of glucoheptanate was added 130 nmol/50 μl of stannous chloride and 1049 MBq of sodium pertechnetate, and the entire volume was adjusted to 1.3 ml. After stirring, the mixture was left to stand still for 30 minutes at room temperature and then the labeling purity of glucoheptanate was confirmed to be 95% or more by cellulose acetate membrane electrophoresis. 242 MBq/300 μl of the mixture was added to 0.46 μmol/300 μl of peptide-1 obtained in Example 1 and the reaction was completed in a hot water bath at 100° C. in 20 minutes to yield the target technetium-99m-peptide-1. After cooling at room temperature, the peptide was confirmed to have a labeling purity of 98.3% according to HPLC method.
After technetium-99m-peptide-1 obtained in Example 6 and technetium-99m-peptides-2 to 4 obtained by the same method as in Example 6 were left to stand still for 1, 3 and 6 hours, the time course changes of technetium-99m labeling yield of the peptides were studied using liquid chromatography (HPLC method) under the following conditions:
Column: Millipore puresil 5 μm C18 (4.6×150 mm),
Eluent A: 0.1% TFA/purified water,
Eluent B: 0.1% TFA/acetonitrile,
Concentration gradient: 0 min. (10% B)→5 mins. (10% B)→35 mins. (50% B)→45 mins. (75% B).

[3] = In vitro stability of technetium-99m labeled peptide in human plasma (HPLC); type: in vitro ADME
Description: Technetium-99m-peptide-8 obtained in Example 8 was mixed with 10-fold equivalent of human plasma (ROCKLAND Inc.: STERILE PLASMA containing EDTA) and the mixture was incubated at 37° C. A mixture of technetium-99m-peptide-1 obtained in Example 6 was also prepared by the same method.
The mixture was filtered through a 0.2 μm membrane filter 5 minutes and 30 minutes after the mixing, and was subjected to HPLC analysis. In vitro stability was evaluated by comparing the pattern of HPLC with that of peptide-1 before the mixing procedure. The HPLC profiles of technetium-99m-peptide-1 and of each of the above technetium-99m-labeled peptides mixed with plasma at 4° C. at the 5 and 30 minute points and at 37° C. at the 5 and 30 minute points are shown in FIGS. 7, 8, 9, 10, 11, 12, 13, 14 and 15.

[4] = target: T1, epitope VTSAPDTRPAPGST of mucin core protein conjugated to bovine serum albumin (BSA) (Homo sapiens, UniProt P15941); type: binding
T1 construct: made in house; host or cells: chemical peptide synthesis (no expression host)
Description: The epitope VTSAPDTRPAPGST of mucin core protein, to which the conventional peptide YCAREPPTRTNAYWG is known to bind, was synthesized and further conjugated to bovine serum albumin (BSA). The conjugated peptide was used as an artificial antigen to measure antigen affinity of peptide-14 by radioimmunoassay (RIA). The assay will be described below in detail.
Each 200 μl of 10 μg/ml solution of the artificial antigen in 50 mmol sodium carbonate buffer of a pH of 9.5 was added to each of 2 ml tubes containing polystyrene beads of 6.35 mm in diameter. The tubes were stood still overnight at 4° C. Then, the inside of the tubes was washed three times by a washing agent of 0.05%(v/v) Tween 20 PBS (phosphate buffer saline, pH 7.5). In order to block the portions to which the artificial antigen is not bound of the surface of the polystyrene beads, 200 μl of 1% BSA-PBS was each added to each of the tubes. The tubes were stood still for 3 hours at room temperature. Then, the inside of the tubes was washed three times.
Peptide-14 was diluted to 500, 100, 50, 10, 5, 1, 0.5, 0.1 and 0.05 μg/ml with PBS containing 1% PRIONEX™ (an albumin substitute of Pentapharm, Ltd.). […] Each of the diluted peptide-containing solutions was added to each of the […] tubes, followed by adding thereto 100 μl of the previously-prepared antibody solution. The tubes were stood still for 3 hours. Then, the inside of the tubes was washed three times with the washing agent.
A sheep antimouse antibody labelled with iodine-125 (3.7 MBq/ml, made by Amersham Co.) was diluted 100-fold with 1% BSA-PBS. To each of the tubes, 200 μl of the diluted antimouse antibody was added. Then, the tubes were stood still for 2 hours at 37° C. Then, the inside of the tubes was washed three times with the washing agent, and radioactivity was measured by use of an auto well gammma ray counter.

In the case of KYCAD-REPPTD-RTFAYD-WGQG [peptide-10], the “radioactivity in liver and small intestines compared with peptides having corresponding L-Arg” value [1] is reported as “reduced percentages of radioactivity in liver and small intestines”.
In the case of KYCAD-REPPTD-RTFAYWGQG [peptide-9], the “radioactivity in liver and small intestines compared with peptides having corresponding L-Arg” value [1] is reported as “reduced percentages of radioactivity in liver and small intestines”.
In the case of KYCAD-REPPTRTFAYWGQG [peptide-7], the “radioactivity in liver and small intestines compared with peptides having corresponding L-Arg” value [1] is reported as “reduced percentages of radioactivity in liver and small intestines”.
With KYCAREPPTRTFAYWGQG [peptide-1] the technetium-99m labeling yield ([2]; 1 hr. standing after labeling) was ≥ 98%, the technetium-99m labeling yield ([2]; 1 hr. standing after labeling, listed as Peptide-1) was 98.3% and the technetium-99m labeling yield ([2]; 3 hr. standing after labeling) was 97.2%. The technetium-99m labeling yield ([2]; 6 hr. standing after labeling) was ≥ 96%, the technetium-99m labeling yield ([2]; 6 hr. standing after labeling, listed as Peptide-1) was 96.6% and the “% of unidentified radioactive substance in plasma” value ([3]; 5 mins. later/4° C.) was 5.3%. The “% of unidentified radioactive substance in plasma” value ([3]; 5 mins. later/37° C.) was 12.4%, the “% of unidentified radioactive substance in plasma” value ([3]; 30 mins. later/4° C.) was 40.1% and the “% of unidentified radioactive substance in plasma” value ([3]; 30 mins. later/37° C.) was 59.4%.
In the case of “KYCAREPPTRTNAYWGQG [peptide-14, KYCAREPPTRTNAYWGQG]”, the binding percentage ([4]; 5.0e-8 g/ml) is reported as 29.517%, the binding percentage ([4]; 1.0e-7 g/ml) is reported as 27.890% and the binding percentage ([4]; 5.0e-7 g/ml) is reported as 42.941%. The binding percentage ([4]; 1.0e-6 g/ml) was 38.129%, the binding percentage ([4]; 5.0e-6 g/ml) was 50.293% and the binding percentage ([4]; 1.0e-5 g/ml) was 60.056%. For the same substance, the binding percentage ([4]; 5.0e-5 g/ml) was 60.869%, the binding percentage ([4]; 1.0e-4 g/ml) was 58.585% and the binding percentage ([4]; 5.0e-4 g/ml) was 63.669%.
In the case of “YCAREPPTRTFAYWG [peptide-3, peptide without N-terminal Lys, used for comparison]”, the technetium-99m labeling yield ([2]; 1 hr. standing after labeling) is reported as 96.3%, the technetium-99m labeling yield ([2]; 3 hr. standing after labeling) is reported as “below 95%” and the technetium-99m labeling yield ([2]; 3 hr. standing after labeling, listed as Peptide-3) is reported as 88.9%. For the same substance, the technetium-99m labeling yield ([2]; 6 hr. standing after labeling) was 84.4%.
In the case of YCAREPPTRTFAYWGQG [peptide-4], the technetium-99m labeling yield ([2]; 1 hr. standing after labeling) is reported as 81.5%, the technetium-99m labeling yield ([2]; 3 hr. standing after labeling) is reported as “below 95%” and the technetium-99m labeling yield ([2]; 3 hr. standing after labeling, listed as Peptide-4) is reported as 81.2%. The technetium-99m labeling yield ([2]; 6 hr. standing after labeling) was 79.9%.
For “YCAREPPTRTNAYWG [peptide-2, conventional peptide without N-terminal Lys, used for comparison]”, the technetium-99m labeling yield ([2]; 1 hr. standing after labeling) was 85.5%, the technetium-99m labeling yield ([2]; 3 hr. standing after labeling) was “below 95%” and the technetium-99m labeling yield ([2]; 3 hr. standing after labeling, listed as Peptide-2) was 71.8%. For the same substance, the technetium-99m labeling yield ([2]; 6 hr. standing after labeling) was 78.5%.
